Measurements as given in patent US20040253224.

System: Bovine submaxillary gland mucin (Sigma)

**Q.** How did the “degradation of mucin on 7.5% SDS-PAGE with silver staining after overnight incubation at 37 C, pH 5.0 (125 ug mucin, 500 ng mouse AMCase)” value turn out when “mouse AMCase (acidic mammalian chitinase)” was run?
**A.** the mucin was degraded by treatment with the AMCase

**Q.** And the “flow rate of the mucin solution, measured in a vertically positioned glass pipette, after incubation with AMCase” value?
**A.** increased with almost a factor of 2
